Values quoted from earlier work, collected in patent publication US20230279132A1, “TREATMENT OF B CELL MALIGNANCIES” (NOVARTIS AG, priority 2020, published 2023).

Tested on: DLBCL
Details: plus lenalidomide; relapsed or refractory DLBCL ineligible for transplants

B1: tafasitamab-cxix: FDA-approved with lenalidomide for relapsed or refractory DLBCL (antibody, chains of the INN, looked up)
heavy: EVQLVESGGGLVKPGGSLKLSCAASGYTFTSYVMHWVRQAPGKGLEWIGYINPYNDGTKYNEKFQGRVTISSDKSISTAYMELSSLRSEDTAMYYCARGTYYYGTRVFDYWGQGTLVTVSSASTKGPSVFPLAPSSKSTSGGTAALGCLVKDYFPEPVTVSWNSGALTSGVHTFPAVLQSSGLYSLSSVVTVPSSSLGTQTYICNVNHKPSNTKVDKKVEPKSCDKTHTCPPCPAPELLGGPDVFLFPPKPKDTLMISRTPEVTCVVVDVSHEDPEVQFNWYVDGVEVHNAKTKPREEQFNSTFRVVSVLTVVHQDWLNGKEYKCKVSNKALPAPEEKTISKTKGQPREPQVYTLPPSREEMTKNQVSLTCLVKGFYPSDIAVEWESNGQPENNYKTTPPMLDSDGSFFLYSKLTVDKSRWQQGNVFSCSVMHEALHNHYTQKSLSLSPG
light: DIVMTQSPATLSLSPGERATLSCRSSKSLQNVNGNTYLYWFQQKPGQSPQLLIYRMSNLNSGVPDRFSGSGSGTEFTLTISSLEPEDFAVYYCMQHLEYPITFGAGTKLEIKRTVAAPSVFIFPPSDEQLKSGTASVVCLLNNFYPREAKVQWKVDNALQSGNSQESVTEQDSKDSTYSLSSTLTLSKADYEKHKVYACEVTHQGLSSPVTKSFNRGEC
CR: 37% | ORR: 55%
